Data taken from patent publication US20210388081A1 (Memorial Sloan Kettering, published 2021).

Experiments:
[1] = target: SLAMF9 protein (UniProt Q96A28 19-236, limits assumed); experiment: phage clone on SLAMF9 protein
[2] = target: T1, FcRL2, overexpressed on 3T3 cells (UniProt Q96LA5 20-508, limits assumed); experiment: phage clone on 3T3-FcRL2 cells
T1 construct: whole, on cells
T1 sequence (looked up): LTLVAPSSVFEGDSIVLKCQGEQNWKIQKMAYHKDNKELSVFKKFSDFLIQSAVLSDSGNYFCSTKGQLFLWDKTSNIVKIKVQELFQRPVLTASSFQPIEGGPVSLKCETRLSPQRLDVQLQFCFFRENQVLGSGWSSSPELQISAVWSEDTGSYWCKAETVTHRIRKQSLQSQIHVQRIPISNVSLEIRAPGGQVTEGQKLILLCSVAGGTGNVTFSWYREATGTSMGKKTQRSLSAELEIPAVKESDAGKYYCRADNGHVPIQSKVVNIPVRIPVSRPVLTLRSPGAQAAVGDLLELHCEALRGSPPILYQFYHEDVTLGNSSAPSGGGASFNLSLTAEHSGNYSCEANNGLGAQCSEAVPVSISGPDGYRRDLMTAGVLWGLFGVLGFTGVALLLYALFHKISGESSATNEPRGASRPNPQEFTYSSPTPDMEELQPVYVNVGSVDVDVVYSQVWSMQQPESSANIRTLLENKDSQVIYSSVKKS

[3] = target: T2, FcRL3, overexpressed on 3T3 cells (UniProt Q96P31 18-734, limits assumed); experiment: phage clone on 3T3-FcRL3 cells
T2 construct: whole, on cells
T2 sequence (looked up): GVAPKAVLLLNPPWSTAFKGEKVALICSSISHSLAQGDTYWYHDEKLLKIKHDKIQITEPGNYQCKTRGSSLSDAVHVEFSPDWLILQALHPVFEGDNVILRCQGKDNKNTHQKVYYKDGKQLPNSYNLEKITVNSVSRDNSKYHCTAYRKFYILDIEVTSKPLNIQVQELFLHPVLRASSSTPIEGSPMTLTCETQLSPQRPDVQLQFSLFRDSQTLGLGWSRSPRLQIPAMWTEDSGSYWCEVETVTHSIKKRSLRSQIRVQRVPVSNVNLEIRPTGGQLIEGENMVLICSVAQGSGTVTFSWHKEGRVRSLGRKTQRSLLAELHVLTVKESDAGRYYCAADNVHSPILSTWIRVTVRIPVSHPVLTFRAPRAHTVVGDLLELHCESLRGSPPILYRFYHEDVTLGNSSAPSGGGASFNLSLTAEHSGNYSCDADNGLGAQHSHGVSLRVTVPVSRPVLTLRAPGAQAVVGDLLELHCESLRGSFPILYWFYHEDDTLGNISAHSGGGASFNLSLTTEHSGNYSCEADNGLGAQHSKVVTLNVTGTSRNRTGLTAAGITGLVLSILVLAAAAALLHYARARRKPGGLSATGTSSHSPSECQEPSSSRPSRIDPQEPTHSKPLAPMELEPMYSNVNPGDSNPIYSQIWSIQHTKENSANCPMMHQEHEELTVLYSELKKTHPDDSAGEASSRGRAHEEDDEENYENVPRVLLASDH

[4] = target: T3, FcRL4, overexpressed on 3T3 cells (UniProt Q96PJ5 20-515, limits assumed); experiment: phage clone on 3T3-FcRL4 cells
T3 construct: whole, on cells
T3 sequence (looked up): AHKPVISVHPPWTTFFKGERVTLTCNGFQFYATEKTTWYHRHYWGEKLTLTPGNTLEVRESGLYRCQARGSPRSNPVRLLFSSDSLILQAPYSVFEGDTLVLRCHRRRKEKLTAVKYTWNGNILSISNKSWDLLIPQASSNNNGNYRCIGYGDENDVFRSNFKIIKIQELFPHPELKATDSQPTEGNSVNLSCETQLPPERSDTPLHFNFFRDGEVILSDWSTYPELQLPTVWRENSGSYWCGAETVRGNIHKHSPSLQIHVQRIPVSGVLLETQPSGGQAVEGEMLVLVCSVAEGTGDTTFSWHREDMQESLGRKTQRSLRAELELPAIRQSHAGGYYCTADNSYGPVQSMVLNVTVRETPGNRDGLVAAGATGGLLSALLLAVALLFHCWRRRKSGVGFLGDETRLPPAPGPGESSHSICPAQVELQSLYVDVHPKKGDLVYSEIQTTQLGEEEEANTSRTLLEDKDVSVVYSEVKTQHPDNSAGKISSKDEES

[5] = target: T4, FcRL6, overexpressed on 3T3 cells (UniProt Q6DN72 20-434, limits assumed); experiment: phage clone on 3T3-FcRL6 cells
T4 construct: whole, on cells
T4 sequence (looked up): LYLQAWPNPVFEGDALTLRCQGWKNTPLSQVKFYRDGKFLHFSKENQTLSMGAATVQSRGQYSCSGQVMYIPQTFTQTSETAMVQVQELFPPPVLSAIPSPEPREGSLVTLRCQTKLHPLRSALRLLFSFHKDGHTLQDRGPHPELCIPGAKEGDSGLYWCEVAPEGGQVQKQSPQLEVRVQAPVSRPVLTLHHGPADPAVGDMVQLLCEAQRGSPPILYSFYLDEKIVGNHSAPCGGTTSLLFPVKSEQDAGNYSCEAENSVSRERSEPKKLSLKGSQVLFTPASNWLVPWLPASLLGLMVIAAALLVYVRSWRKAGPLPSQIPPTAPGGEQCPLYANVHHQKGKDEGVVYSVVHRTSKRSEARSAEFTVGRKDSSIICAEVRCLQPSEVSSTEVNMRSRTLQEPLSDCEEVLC

Measured: binding result

Chain of SLAMF9 protein (Q96A28 19-236 limits assumed): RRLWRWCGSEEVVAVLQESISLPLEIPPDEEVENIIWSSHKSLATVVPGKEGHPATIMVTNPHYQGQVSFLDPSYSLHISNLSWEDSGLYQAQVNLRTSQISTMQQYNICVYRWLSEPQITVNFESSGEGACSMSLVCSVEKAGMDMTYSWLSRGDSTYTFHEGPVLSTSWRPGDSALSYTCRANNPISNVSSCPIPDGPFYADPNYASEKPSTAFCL

B1: ET200-010 (scFv)
scFv: QSALTQPASVSGSPGQSITISCTGTSSDVGGYNSVSWYQQHPGKAPRLMIYDVSNRPSGVSNRFSGSKSGNTASLTISGLQAEDEADYYCSSYTSSSTPLVFGTGTKVTVLGSRGGGGSGGGGSGGGGSLEMAQVQLVQSGAEVKKPGASVKVSCKASGYTFTSYGISWVRQAPGQGLEWMGWISAYNGNTNYAQKLQGRVTMTTDTSTSTAYMELRSLRSDDTAVYYCARGAVAYHDWGQGTLVTVSSTSGQAGQHHHHHHGAYPYDVPDYAS
notes: screened as phage clone; entry is VL-linker-VH-His tag-HA tag
no binding: all assays above
